Results from the domain aggregation screens of Martell et al. (2025).

Test: soluble fraction after stress (log2 fold change); higher = more stays soluble; pooled small domains, quantitative proteomics
Conditions: stress: pH 4
In short: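 Values are on a log2 scale, where higher means more of the domain stayed soluble after pH 4 stress. They are fold changes in the soluble amount of each domain from pooled custom libraries, measured by high-throughput quantitative proteomics. The fold change is taken to reflect aggregation propensity.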

Sequence: HMTPVYLNARQKQILAFLKREEPAKVGDIAHALKTISINTLKKDLLYLRQKNLIESHGVLKGTIYTVK
- soluble fraction (log2): 0.209

Sequence: HMTDLDDFAARLKTLTDGRASTPRLRDGVMMLSLDVGGLGPDQRDGLIAAIREGGLTVPGVSDVRIVMT
- soluble fraction (log2): 0.22

Sequence: HMSREMIKSELESISGLGKSGIEKLYTHFINIENIKSASLENIRNIPGISYKVADNIYKHFH
- soluble fraction (log2): 0.385

Sequence: HMKTKTAPPDSIPPAWLKESATLRPDLNQAQIKASAEVFLDHHRAKGTTLADWRPAWRNWIRRERA
- soluble fraction (log2): 0.0552

Sequence: HMSYTAYLSQELGDMSREIQSELLKKGYNGSSSFTIVRTYMGSSVKFSVYNANNGELITSKTINM
- soluble fraction (log2): -0.306

Sequence: HMKIMSLSERHQKILELLKVNGIVSVNSLSRQLNVSSVTIRKDLGLLEEKKLLYRSHGGAIQID
- soluble fraction (log2): -0.213

Sequence: HMTSSQLNIEELERRMMMHLEQNGFITRSIYTNLTGRLKWKATEDLKIFVEKGLIRKMGRGNQMYYVKVE
- soluble fraction (log2): -0.895

Sequence: HMVEDPADNQKAADAVIKKISEIGEVTESSENLIKEARASYDALTDNQKELVTNYDVLVQAEAQLENIKD
- soluble fraction (log2): -0.703

Sequence: HMRINIVKSKNAEQLYIIHSYRINGKNTSKIYKKLGTMADLLPLHNHDRDQVLAWAKEQARLATEQYDQEN
- soluble fraction (log2): 0.26

Sequence: HMQKKEVTVPEVRSKSLKEAAQILSEQNLKYETEPVNVENPDMVVIDQFPKPGGKISEQSVIILYLR
- soluble fraction (log2): 0.146

Sequence: HMEQISVPIFTNDELVTFARSYSGELGYKIDDMAVLALYNRISNIQRLDQATTLTEVKDIVDEAVAKSE
- soluble fraction (log2): -0.63

Sequence: HMKEIPTKKGDMLEIYEANGKYILKYPTFNITMPEVVKEIPKEAVDSYLAGKHDGEELINYANFGFWKS
- soluble fraction (log2): 0.315

Sequence: HMDTYKGFIFEVVDKYFSPTLNQKIGQAKNKQGIVLLQTKPSFTQDPKVLIEELKLIIDRDNLKA
- soluble fraction (log2): -0.362

Sequence: HMAEVAFEEQNIEQISNLLLRIQAIFAELMTALDKEKGGEIADNLERLYVFFLEKLGDANVRKDPAP
- soluble fraction (log2): -0.135

Sequence: HMDSVAKSFLAEIERFLETAGLEPTTLGKQALGDPSFVFDLRKGRSPSTRTIGKLRVWMQQQNALS
- soluble fraction (log2): -1.24

Sequence: HMNRTEYMAALRRALSVLPEEERASALRYYEEYFDDAGPENEEKVIADLGAPEKVAGQILADYRE
- soluble fraction (log2): -0.462

Sequence: HMADVIKLVNTSVLNVRSGAGINYSKIGSLTQGTKVNIISESNGWSKINYNGKIGYISSQYVSEVS
- soluble fraction (log2): 0.324

Sequence: HMSEYNPGIYRVTDPALNIRTGPGVEYPVVGVIKDQGSYTITEIRNKSWGRLLSGAGSTAIKHIVFT
- soluble fraction (log2): -0.173

Sequence: HMDLIISDIRMPEMRGDDFLEWIKANELFKHIPVIMLSSEDSTTERIRLLEIGAEDYIVKPFNPMELKIR
- soluble fraction (log2): -1.01

Sequence: HMGTRHPLPYAFAKAHTVLLEDDGDRLLLHAAENSGPSALGEILRLYDVDALERETASTLANRIAVAYAG
- soluble fraction (log2): 0.163

Sequence: HMNTDEYEQKRGEILDAAQRLIYTKGYERMSIQDILDELKISKGAFYHYFDSKQSLLEALTARMMTE
- soluble fraction (log2): -0.408

Sequence: HMDSVTLGISFNGKTRFTLDFPADAAAADIEKAALEAEQSQRYLEGMTVAKVIVVPGRIVNIVLK
- soluble fraction (log2): -0.185

Sequence: HMSVDVGMQLRKLREERKISMRELARLSGLSANALSMIERGLTSPSVSTLNKLAGALEVPITAFFRI
- soluble fraction (log2): -0.00213

Sequence: HMNKRYKVQVTTDNLKIRKGAGTSYPVVGHITDKGTYTIVETSGKWGKLLSGAGWIYLSYTKK
- soluble fraction (log2): 0.22

Sequence: HMSPLTPEEAEVLRILGDHGDMTVDNIATEGKMSAAAVLRVLGVLSAYGLAVPSGPGRWGSRAA
- soluble fraction (log2): 0.152

Sequence: HMNKADFLRKLDRELSVLDQEERKEILSFYEERFYTGTNYENKTELDIINELENPEIIAKNVLEEYGV
- soluble fraction (log2): -1.45

Sequence: HMAAINPSALREPATPPEQLSAGDSVLHPRFGRGEILELQQQGGDPRAIVQFINEPKPRTLVLRYAQLRK
- soluble fraction (log2): 0.0977

Sequence: HMNVKVYATIDGDNFKVSGLKPGSNVRVYSSNGSAVFEKKAGDSEMIIPAGAWTKGIYVISADDQSIKVT
- soluble fraction (log2): -0.0844

Sequence: HMNSSHRLIGLDPGLRVTGWGIVDAIGTKLVHVANGSVKSQQNAPLATRLLELENGLEEVFDNWQPDFA
- soluble fraction (log2): -0.0459

Sequence: HMNNQKATAVKVASGIVNLRSGPATSYETLDTVATGETLSVLAEKDGWFQVSRAGRTGWVAGWVVDVIRE
- soluble fraction (log2): -0.586

Sequence: HMSVKSVSLRKISYKVRRGDSLYNIAKNFSLSINDITHWNSINKKSYLQPGQRLTLYINPRN
- soluble fraction (log2): 0.193

Sequence: HMGIQQNHMTLHARSVASSANVPAEHFDTLVEKLIESGDIKVWKAREILMNLSRQHEEILDES
- soluble fraction (log2): -0.365

Sequence: HMAVKTEHGRIWKALPEGQDGYREDVPMFTSKSMYDGSAGIGIFLIRLYEATSDERWLKEAEEAAAHII
- soluble fraction (log2): 0.308

Sequence: HMSNVDYSQFKKDTVVEHTKFGRGIIIQTSGDGEDKIAAIAFKGLGVKRFSLAIAAASLKIIGKNDE
- soluble fraction (log2): 0.194

Sequence: HMKLRSIQEQVQYLEKVDNQKAMQIILNMNDKASAVQILRNMKKEKAAAILAQMDPLQAAQILEDLA
- soluble fraction (log2): -0.132

Sequence: HMDPVQLEVIKKLNLLNAQKPKDIYALRDVLSEMFPQSDIRLLLKELLDKGYIYWNGHEVIYSHEMF
- soluble fraction (log2): -0.431

Sequence: HMQELGVISEGKYNIELNMVSWNDREPKYDIRSWAPDHSRMGKGISLTEEEMERLVELWNTRNE
- soluble fraction (log2): -0.802

Sequence: HMERAYGVRVSLRLDDPFRTLLGADWSRTHWFASAEERDAALLEMSRKHEFSRPGDQPALVYEKVQN
- soluble fraction (log2): -0.471

Sequence: HMPGIDDAAVEHAERVLAQHIGPMARLLVRRTVPRAANLFDLHRRLGALIPESEPRTAFLSAVVT
- soluble fraction (log2): 0.0209

Sequence: HMAGTAFPVRIMLKGIDRIGLLNEITGYISVAMGVNMRKLNLSTEDGIFEGYIDMLVHDRTVLESMIDNL
- soluble fraction (log2): 0.22

Sequence: HMNNLGSKIKELRIAENLTQEKLAEELNVSFQSISRWENGISTPDISLIPAIARFFGVSTDYLFGLQD
- soluble fraction (log2): -1.03

Sequence: HMLVNNSTIETVIDFANVKFGMELTKDQVSEQLRNLSFSQTLKLINSMKADDNDAFSEIIDL
- soluble fraction (log2): -1.89

Sequence: HMEWNPEKQHLLENYITNYSRQLNDTGLFYKNLDWNYIFNLVGVDDQEFLMLKIDEIYDESINVY
- soluble fraction (log2): -1.63

Sequence: HMADENIELRKAGLKVTLPRVKILQILEAAKEPHMSAEDVYKALMEANEEVGLATVYRVLTQFESAGL
- soluble fraction (log2): -0.232

Sequence: HMGYGEQEAEATKYMSLHAIMSADETLSKMYTPENQHKLMTHVMEQNGIKNVKDYLTPPSELP
- soluble fraction (log2): -0.443

Sequence: HMKQVEVPRLVGLTLREAQAVLGQVGLRIGLISRAALLASPREQIVEQIPVAGERNIATPYVNLLVNVP
- soluble fraction (log2): -0.324

Sequence: HMDYYNILGVNKAATAQDIKRAYRKLAKEHHPDHGGDATRLQQVNEAYDTLKDPQRREQYDS
- soluble fraction (log2): 0.0634

Sequence: HMTNYYTVTFKEGDTVLKEVSVHSGDGVPYAVAPKRDDIVGWSYNGNTYTTDLNTLKIKKEVTFTAVT
- soluble fraction (log2): 0.183

Sequence: HMLAIELDDKPGSLLRALEIFAKRNLNIEYMYAFTEKRGDKAVMIFKFSDIETAKKSLLEEGFN
- soluble fraction (log2): -1.13

Sequence: HMGVARGQAQVTTRQHVVQPGETLYQISKQYGVTVAEILRYNADIEDNTVKVGQTLQIPTPLP
- soluble fraction (log2): -0.206

Sequence: HMTMMTFGEKLQNARKGAGLSQEQLAEKLSVSRSAVAKWENDNGMPDIDNLKAIAQLLDVSIDYLLEN
- soluble fraction (log2): -0.71

Sequence: HMELLEVSVIIREADSTGWSAARQGMEQAAADLGAELRFLTLSQSNSAEEQRSLLAREVEGGADAVVLV
- soluble fraction (log2): ≥ 0.43

Sequence: HMDKAALGQKLRQARLDKGYTQQSLSEKADIGEVYLSEIERGLKMPSMNLFIKLITALDISADYILR
- soluble fraction (log2): -1

Sequence: HMGIIQAQIPGLVSRLFVKKGDKVAVNQRLFILEAMKMENEIDSPIQGMVEKIHITTGSKVEKGDLIMEIV
- soluble fraction (log2): ≥ 0.43

Sequence: HMHKYEYESLNHVNVGSNLKYISTHFGQPKLIKKSKYHENLNFAYYLEKKFILTLILEGDRVNAYTITG
- soluble fraction (log2): -0.236

Sequence: HMRGQLADLWLPREQARRAAEIVAARPVPLGSVKTWIARGKLAPRKTGTGPALYRVGALVSLLAKS
- soluble fraction (log2): 0.133

Sequence: HMHKTEIKIPSREDILAVLRQAQAPLTREQVFEHLKLTEDQIPIIEKRLNAMERDGQLMPNRKGMLLLSTK
- soluble fraction (log2): 0.00265

Sequence: HMRKPDLTSVRTLIRSVSKLARHLKISPNGIYRWISVNRIPGAHVVKVANYYDVEIRDLVHLTGSD
- soluble fraction (log2): -0.578

Sequence: HMVDYSMEDSVWNNKKEHVNEWFDANPEHEGRRVIVDGLFAIGDAQPDLRKRHWSSISVVFADLDNSPIG
- soluble fraction (log2): -1.01

Sequence: HMSKPTLTDELLTLDLFEEIIKAKENAKGANKRFSLVGFLESKYIVDQEMLPKVNVKVTEYYNLTREN
- soluble fraction (log2): -1.8

Sequence: HMKEHDTLALRLTAILRKLNDGEKLVPRELAEEFNVGIRTIQRDLTERLSFLDLEKTNGAYSLPTRNL
- soluble fraction (log2): -0.36

Sequence: HMELIELTVTEEFEMARLDQFLAGHLTQSRTYIQKLIKAGQITINGNLITRVKVPVHYGDFILINIPDPE
- soluble fraction (log2): -1.6

Sequence: HMSPRQVTAVRSGSPMPVLPGEDWRLYDASGALVARGSGAAPIPKSTGLLRLNSEGLDGLADRWIWVL
- soluble fraction (log2): -0.154

Sequence: HMKFNRPMSEILQEWENKLGTTSDAELAGLIGVVTMTINRWRKNETKPDLSALNRYDRIVNLVVNNIKQL
- soluble fraction (log2): -0.321

Sequence: HMNLGDSLFHARRKQGLSQEAVAEQLGVSRQTVSKWEANETLPDIRQSKLMAKLYHTSLDELI
- soluble fraction (log2): 0.138

Sequence: HMENRILIPTAENIGERLDRYISSELDAPRSQVQIWIDSGLVAVSGGLKPKNYRLREGDEIEVTIPDPV
- soluble fraction (log2): -0.0637

Sequence: HMFEDEPSEREIRISTLLAAFLKQEDGGTAVSRERFLKENSDVAEDLQILLEMADMIQEMAGP
- soluble fraction (log2): -0.744

Sequence: HMYKLTYVVDGEVYLEETVSYGSKIAAAPAPEKEGYTFSGWEGLPEVMPAKDVTVSGSFTVN
- soluble fraction (log2): -0.0428

Sequence: HMLPANGEAIYHYLASGAIKGVGPVTAQRIVDKFGEDTFDVLENNPLWLAEIKGITRKTAENIGAAFAAQF
- soluble fraction (log2): -0.263

Sequence: HMGIYDQAAAAYIEFVESKNRAPKWNELIDALYKENGKDWIDRSTLHGLLRRKEFQELLAQKRKEHLV
- soluble fraction (log2): -0.159

Sequence: HMRMTLKNKVEDIVHILRKDKQTSLSAILGDNTDRIQTIVVFLAILELVKQHLIKTDQNANFGDINLFPED
- soluble fraction (log2): 0.134

Sequence: HMEPALYRLFMAHPELNASAVARRLGIAQSLLAQYISGSKKPSPERERMILTEIHKIGEELATAS
- soluble fraction (log2): 0.102

Sequence: HMETEQVEMIRVVGMHVDEAKKALLDLGLSPEIKYEESSSYDAGTVLRASVQDGLMIDKGTNIVLTVAEA
- soluble fraction (log2): -0.549

Sequence: HMAEERVLSVPQSLAGERLDAALASLMPDYSRSRLASWIKEGLVTVDGAGAMPKQKLWGGETLRVQAQPT
- soluble fraction (log2): 0.0973

Sequence: HMAMYSREKLKKLREDRGLTQYELAKIAGISVVTLNKIESSDSAKPFVKTLNKIAQALGVGIDELS
- soluble fraction (log2): ≥ 0.43

Sequence: HMAEKGIGRVNADWLNMRTSPGGEVLTVLKQGTELQVIGRSGSWLEVQHGNEQGYVSSRYITIQP
- soluble fraction (log2): 0.132
